Numbering of substitutions follows the chain as printed. Several values for one entry are separate records, joined by “and”; a condition that tells them apart may be missing. Identical values can stand only once.
B1: 35 LP-DART (bispecific antibody)
chain 1: QSVLTQPPSVSAAPGQKVTISCSGSSSNIGNNYVSWYQQLPGTAPKLLIYDNNKRPSGIPDRFSGSKSGTSATLGITGLQTGDEADYYCGTWDSSLSAVVFGGGTKLTVLGGGSGGGGEVQLVESGGGLVQPGGSLRLSCAASGFTFSTYAMNWVRQAPGKGLEWVGRIRSKYNNYATYYADSVKGRFTISRDDSKNSLYLQMNSLKTEDTAVYYCVRHGNFGNSYVSWFAYWGQGTLVTVSSGCPPCPAPEAAGAPSVFLFPPKPKDTLMISRTPEVTCVVVDVSHEDPEVKFNWYVDGVEVHNAKTKPREEQYNSTYRVVSVLTVLHQDWLNGKEYKCKVSNKALPAPIEKTISKAKGQPREPQVCTLPPSREEMTKNQVSLWCLVKGFYPSDIAVEWESNGQPENNYKTTPPVLDSDGSFFLYSKLTVDKSRWQQGNVFSCSVMHEALHNHYTQKSLSLSPG
chain 2: QAVVTQEPSLTVSPGGTVTLTCRSSTGAVTTSNYANWVQQKPGQAPRGLIGGTNKRAPWTPARFSGSLLGGKAALTITGAQAEDEADYYCALWYSNLWVFGGGTKLTVLGGGGSGGGGEVQLVQSGAEVKKPGASVKVSCKASGYTFTSYGISWVRQAPGQGLEWMGWISAYNGNTNYAQKLQGRVTMTTDTSTSTAYMELRSLRSDDTAVYYCATIDTASAFDIWGQGTMVTVSSGCPPCPAPEAAGAPSVFLFPPKPKDTLMISRTPEVTCVVVDVSHEDPEVKFNWYVDGVEVHNAKTKPREEQYNSTYRVVSVLTVLHQDWLNGKEYKCKVSNKALPAPIEKTISKAKGQPREPQVYTLPPCREEMTKNQVSLSCAVKGFYPSDIAVEWESNGQPENNYKTTPPVLDSDGSFFLVSKLTVDKSRWQQGNVFSCSVMHEALHNHYTQKSLSLSPG
B2: 30 EK-DART (bispecific antibody)
chain 1: DIVMTQSPLSLPVTLGQPASISCRSSQSLVHSDGNTYLHWFQQRPGQSPRRLIYKVSNRDSGVPDRFSGSGSGTDFTLKISRVEAEDVGVYYCMQGTHWPPLFGQGTKVEIKGGGSGGGGEVQLVESGGGLVQPGGSLRLSCAASGFTFNTYAMNWVRQAPGKGLEWVARIRSKYNNYATYYADSVKDRFTISRDDSKNSLYLQMNSLKTEDTAVYYCVRHGNFGNSYVSWFAYWGQGTLVTVSSGGCGGGKVAALKEKVAALKEKVAALKEKVAALKE
chain 2: QAVVTQEPSLTVSPGGTVTLTCRSSTGAVTTSNYANWVQQKPGQAPRGLIGGTNKRAPWTPARFSGSLLGGKAALTITGAQAEDEADYYCALWYSNLWVFGGGTKLTVLGGGGSGGGGEVQLVESGGGVVQPGRSLRLSCAASGFTFSSYGMHWVRQAPGKGLEWVAVISYDGSNKYYADSVKGRFTISRDNSKNTLYLQMNSLRAEDTAVYYCAKSSSDRTFDYWGQGTLVTVSSGGCGGGEVAALEKEVAALEKEVAALEKEVAALEK
notes: also called P-CAD 30 EK-DART (CD3-2)
B3: 153 MP3 C-terminal DART (bispecific antibody)
chain 1: DKTHTCPPCPAPEAAGAPSVFLFPPKPKDTLMISRTPEVTCVVVDVSHEDPEVKFNWYVDGVEVHNAKTKPREEQYNSTYRVVSVLTVLHQDWLNGKEYKCKVSNKALPAPIEKTISKAKGQPREPQVYTLPPSREEMTKNQVSLWCLVKGFYPSDIAVEWESNGQPENNYKTTPPVLDSDGSFFLYSKLTVDKSRWQQGNVFSCSVMHEALHNHYTQKSLSLSPGKAPSSSPMEQSVLTQPPSVSAAPGQKVTISCSGSSSNIGNNYVSWYQQLPGTAPKLLIYDNNKRPSGIPDRFSGSKSGTSATLGITGLQTGDEADYYCGTWDSSLSGVVFGGGTKLTVLGGGGSGGGGEVQLVESGGGLVQPGGSLRLSCAASGFTFSTYAMNWVRQAPGKGLEWVGRIRSKYNNYATYYADSVKGRFTISRDDSKNSLYLQMNSLKTEDTAVYYCVRHGNFGNSYVSWFAYWGQGTLVTVSSGVEPKSC
chain 2: QAVVTQEPSLTVSPGGTVTLTCRSSTGAVTTSNYANWVQQKPGQAPRGLIGGTNKRAPWTPARFSGSLLGGKAALTITGAQAEDEADYYCALWYSNLWVFGGGTKLTVLGGGGSGGGGEVQLVQSGAEVKKPGASVKVSCKASGYTFTSYGISWVRQAPGQGLEWMGWISAYNGNTNYAQKLQGRVTMTTDTSTSTAYMELRSLRSDDTAVYYCATIDTANAFGIWGQGTMVTVSSGFNRGEC
chain 3: DKTHTCPPCPAPEAAGAPSVFLFPPKPKDTLMISRTPEVTCVVVDVSHEDPEVKFNWYVDGVEVHNAKTKPREEQYNSTYRVVSVLTVLHQDWLNGKEYKCKVSNKALPAPIEKTISKAKGQPREPQVYTLPPSREEMTKNQVSLSCAVKGFYPSDIAVEWESNGQPENNYKTTPPVLDSDGSFFLVSKLTVDKSRWQQGNVFSCSVMHEALHNRYTQKSLSLSPGK
notes: also called C-terminal MP3-DART P-CAD153 VH and VL
B4: 153 MP3 N-terminal DART (bispecific antibody, human IgG1)
chain 1: QSVLTQPPSVSAAPGQKVTISCSGSSSNIGNNYVSWYQQLPGTAPKLLIYDNNKRPSGIPDRFSGSKSGTSATLGITGLQTGDEADYYCGTWDSSLSGVVFGGGTKLTVLGGGGSGGGGEVQLVESGGGLVQPGGSLRLSCAASGFTFSTYAMNWVRQAPGKGLEWVGRIRSKYNNYATYYADSVKGRFTISRDDSKNSLYLQMNSLKTEDTAVYYCVRHGNFGNSYVSWFAYWGQGTLVTVSSGVEPKSCDKTHTCPPCPAPEAAGAPSVFLFPPKPKDTLMISRTPEVTCVVVDVSHEDPEVKFNWYVDGVEVHNAKTKPREEQYNSTYRVVSVLTVLHQDWLNGKEYKCKVSNKALPAPIEKTISKAKGQPREPQVYTLPPSREEMTKNQVSLWCLVKGFYPSDIAVEWESNGQPENNYKTTPPVLDSDGSFFLYSKLTVDKSRWQQGNVFSCSVMHEALHNHYTQKSLSLSPGK
chain 2: B3 chain 2
chain 3: B3 chain 3
B5: 20 EK-DART (bispecific antibody)
chain 1: AIQMTQSPSSLSASVGDRVTITCRASQSIGKYLNWYQQIPGKAPKLLIYTASTLQTGVPSRFSGSGSGTDFTLTIVSLQPEDFATYYCQQSFNTPRTFGQGTKVEIKGGGSGGGGEVQLVESGGGLVQPGGSLRLSCAASGFTFNTYAMNWVRQAPGKGLEWVARIRSKYNNYATYYADSVKDRFTISRDDSKNSLYLQMNSLKTEDTAVYYCVRHGNFGNSYVSWFAYWGQGTLVTVSSGGCGGGKVAALKEKVAALKEKVAALKEKVAALKE
chain 2: QAVVTQEPSLTVSPGGTVTLTCRSSTGAVTTSNYANWVQQKPGQAPRGLIGGTNKRAPWTPARFSGSLLGGKAALTITGAQAEDEADYYCALWYSNLWVFGGGTKLTVLGGGGSGGGGEVQLVQSGAEVKKPGASVKVSCKASGYTFTGYYMHWVRQAPGQGLEWMGRINPNSGGTNYAQKFQGRVTMTRDTSISTAYMELSRLRSDDTAVYYCAKGSGSGAFDIWGQGTMVTVSSGGCGGGEVAALEKEVAALEKEVAALEKEVAALEK
notes: also called P-CAD 20 EK-DART (CD3-2)
B6: 35 EK-DART (bispecific antibody)
chain 1: QSVLTQPPSVSAAPGQKVTISCSGSSSNIGNNYVSWYQQLPGTAPKLLIYDNNKRPSGIPDRFSGSKSGTSATLGITGLQTGDEADYYCGTWDSSLSAVVFGGGTKLTVLGGGSGGGGEVQLVESGGGLVQPGGSLRLSCAASGFTFNTYAMNWVRQAPGKGLEWVARIRSKYNNYATYYADSVKDRFTISRDDSKNSLYLQMNSLKTEDTAVYYCVRHGNFGNSYVSWFAYWGQGTLVTVSSGGCGGGKVAALKEKVAALKEKVAALKEKVAALKE
chain 2: QAVVTQEPSLTVSPGGTVTLTCRSSTGAVTTSNYANWVQQKPGQAPRGLIGGTNKRAPWTPARFSGSLLGGKAALTITGAQAEDEADYYCALWYSNLWVFGGGTKLTVLGGGGSGGGGEVQLVQSGAEVKKPGASVKVSCKASGYTFTSYGISWVRQAPGQGLEWMGWISAYNGNTNYAQKLQGRVTMTTDTSTSTAYMELRSLRSDDTAVYYCATIDTASAFDIWGQGTMVTVSSGGCGGGEVAALEKEVAALEKEVAALEKEVAALEK
notes: also called P-CAD 35 EK-DART (CD3-2); parental 35 EK-DART
B7: 153 EK-DART (bispecific antibody)
chain 1: B6 chain 1 with A98G
chain 2: B6 chain 2 with S221N, D224G
B8: 34 EK-DART (bispecific antibody)
chain 1: B6 chain 1 with L4V, V99W
chain 2: B6 chain 2
notes: also called P-CAD 34 EK-DART (CD3-2)
B9: 33 EK-DART (bispecific antibody)
chain 1: B6 chain 1 with V99Y, G103T, L107V
chain 2: B6 chain 2 with E119Q, V120M, T216L, D218G, T219S, A220G, S221V
notes: CD3 VL x P-CAD VH-E-coil); also called P-CAD 33 EK-DART (CD3-2)

Experiments:
[1] = target: T1, human P-cadherin expressed on the cell surface (human, UniProt P22223 108-829); test: cell-based or functional assay
[2] = target: T1, human P-cadherin expressed on the cell …; test: cell ELISA, H1650 cells
[3] = target: T2, cynomolgus monkey P-cadherin ECD (cynomolgus monkey); test: SPR Biacore 3000, antigen immobilised
T2 construct: extracellular domain; also called cyno P-cadherin ECD; Cyno P-cadherin
Protocol: (§1) Binding affinity of EK-DART proteins to P-cadherin and CD3 was analyzed by SPR using a BIACORE® 3000 biosensor (GE Healthcare). The antigens huCD3εδ and either human P-cadherin-Fc or human/cynomolgus monkey/murine P-cadherin-ECD were immobilized on the CM-5 sensor chip by amine coupling kit as recommended by the manufacturer. […] All EK-DART proteins in Tables 15 and 16 comprise CD3-2.

Hu P-cadherin-Fc = target: T3, Hu P-cadherin-Fc (human, UniProt P22223 108-654, limits assumed); test: ELISA
T3 construct: also called recombinant human P-cadherin-Fc; human P-cadherin-Fc; not shown: Fc

[4] = target: T2, cynomolgus monkey P-cadherin ECD; test: SPR Biacore pH 7.4, average
[5] = target: T2, cynomolgus monkey P-cadherin ECD; test: SPR Biacore pH 7.4
[6] = target: T1, human P-cadherin expressed on the cell …; test: cell-based or functional assay; remark: listed apart in the source
[7] = target: T2, cynomolgus monkey P-cadherin ECD; test: SPR Biacore
Protocol: as §1
All EK-DART proteins in Table 17 comprise CD3-2.

[8] = target: T2, cynomolgus monkey P-cadherin ECD; test: SPR

T3 sequence (P22223 108-654 limits assumed): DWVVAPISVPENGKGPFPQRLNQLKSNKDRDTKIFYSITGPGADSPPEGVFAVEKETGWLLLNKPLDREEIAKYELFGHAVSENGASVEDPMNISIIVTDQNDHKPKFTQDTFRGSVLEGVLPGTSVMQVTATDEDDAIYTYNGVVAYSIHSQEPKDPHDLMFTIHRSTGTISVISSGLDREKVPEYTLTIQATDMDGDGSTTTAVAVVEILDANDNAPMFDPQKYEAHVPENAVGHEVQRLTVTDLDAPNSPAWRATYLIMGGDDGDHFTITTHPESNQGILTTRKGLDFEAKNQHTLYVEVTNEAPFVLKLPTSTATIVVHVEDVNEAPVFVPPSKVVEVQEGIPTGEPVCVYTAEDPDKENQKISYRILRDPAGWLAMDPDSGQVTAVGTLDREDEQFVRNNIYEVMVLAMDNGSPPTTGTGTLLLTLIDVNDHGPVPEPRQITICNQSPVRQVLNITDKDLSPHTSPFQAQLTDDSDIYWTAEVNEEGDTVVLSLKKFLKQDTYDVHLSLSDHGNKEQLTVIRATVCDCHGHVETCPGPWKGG
T1 sequence (P22223 108-829): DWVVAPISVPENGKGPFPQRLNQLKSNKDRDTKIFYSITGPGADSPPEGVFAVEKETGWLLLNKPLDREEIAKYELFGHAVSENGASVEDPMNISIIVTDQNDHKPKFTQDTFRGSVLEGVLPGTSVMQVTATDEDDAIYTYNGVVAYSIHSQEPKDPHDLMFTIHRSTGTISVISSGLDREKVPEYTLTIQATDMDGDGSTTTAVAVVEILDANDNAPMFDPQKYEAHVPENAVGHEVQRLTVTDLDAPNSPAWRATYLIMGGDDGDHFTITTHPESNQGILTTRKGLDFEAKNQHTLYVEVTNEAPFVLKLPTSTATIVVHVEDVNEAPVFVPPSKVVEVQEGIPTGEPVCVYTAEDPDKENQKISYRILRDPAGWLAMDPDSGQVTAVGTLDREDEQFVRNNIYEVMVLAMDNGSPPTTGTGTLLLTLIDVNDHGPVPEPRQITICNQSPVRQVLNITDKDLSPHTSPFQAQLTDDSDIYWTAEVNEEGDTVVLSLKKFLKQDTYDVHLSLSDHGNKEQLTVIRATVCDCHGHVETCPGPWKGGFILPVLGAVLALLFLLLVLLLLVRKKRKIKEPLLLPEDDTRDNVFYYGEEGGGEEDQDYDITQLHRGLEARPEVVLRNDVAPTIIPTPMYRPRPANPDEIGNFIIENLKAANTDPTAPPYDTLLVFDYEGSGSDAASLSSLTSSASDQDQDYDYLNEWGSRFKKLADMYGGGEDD

Binder | EC50 [2] [nM] | Kd [3] [nM] | koff [3] [s⁻¹] | kon [3] [M⁻¹ s⁻¹] | EC50 (Hu P-cadherin-Fc) [nM] | Kd [4] [nM] | Kd [5] | koff [5] | kon [5] | t½ [5] | further results
B1 |  |  |  |  |  |  |  |  |  |  | DU145 CTL (LDH) EC50 [1]: 0.0073 nM; HCT116 CTL (Luc) EC50 [1]: 0.107 nM
B2 | 142 | 1.37 | 0.00648 | 4.72e+06 | 3.68 |  |  |  |  |  | 
B3 |  |  |  |  |  | 1.84 | 1.56 nM and 2.11 nM | 0.000106 s⁻¹ and 0.000179 s⁻¹ | 68000 M⁻¹ s⁻¹ and 84600 M⁻¹ s⁻¹ | 102 min and 60.9 min | 
B4 |  |  |  |  |  | 2.61 | 2.43 nM and 2.78 nM | 0.000296 s⁻¹ and 0.000228 s⁻¹ | 122000 M⁻¹ s⁻¹ and 81900 M⁻¹ s⁻¹ | 36.8 min and 47.8 min | 
B5 | ~115 | 2.03 | 0.00704 | 3.46e+06 | 12.3 |  |  |  |  |  | 
B6 | 24.9 | 43.4 | 0.0138 | 318000 | 1.92 |  |  |  |  |  | T cell Cytotoxicity [6]: 0.33 nM; Kd [7]: 35 nM; koff [7]: 0.0215 s⁻¹; kon [7]: 614000 M⁻¹ s⁻¹; Kd [8]: 42.8 nM
B7 |  |  |  |  |  | 0.417 | 0.403 nM and 0.43 nM | 0.000211 s⁻¹ and 0.000222 s⁻¹ | 524000 M⁻¹ s⁻¹ and 517000 M⁻¹ s⁻¹ | 51.6 min and 49 min | Kd [7]: 0.232 nM; koff [7]: 0.000172 s⁻¹; kon [7]: 732000 M⁻¹ s⁻¹
B8 | 68 | 129 | 0.0833 | 705000 | 2.85 |  |  |  |  |  | 
B9 | 60.1 | 46.4 | 0.0578 | 1.15e+06 | 1.8 |  |  |  |  |  | 
